Measured values from the domain aggregation screens of Martell et al. (2025).

Test: soluble fraction after stress (log2 fold change); higher = more stays soluble; pooled small domains, quantitative proteomics
Conditions: stress: 50 degC
Method in brief: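 The stress applied to every library was 50°C. These custom libraries of small protein domains were pooled and measured at high throughput with quantitative proteomics as the read-out. Aggregation propensity is expressed as the base-two logarithm of the fold change in how much of each protein remains soluble. The higher the value, the more of that protein stays in solution.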

HMDGISANAVKALIESLIAGEDKRKPLSDQAMSDRLALQGIVLARRTVAKYREELNFPPAHQRKQK
soluble fraction (log2): -0.572

HMTAEASELRERIRAAMATLPPAQQRVIELAYFEGLTQREIAALLNEPLGTIKTRMRLGMRKLKDVL
soluble fraction (log2): -0.747

HMTSEPFYNPRRPQPYWTSETDRHTTYADAVRALAREFSETPEWVESNMGETNDLQEIRRNLSRVKSG
soluble fraction (log2): 0.144

HMPRKYFPFYFTFRETAQTMPPRLRAVFYEAIIEYGTTGKEPTLPKSIAGYWPLVKPTLDSAKAHYDAG
soluble fraction (log2): -0.831

HMSDMIGQNIRRLRTEKQMTQKALADKLFVTAQAVSRWENGEVEPSLSTVTEIARIFNVSADEILGI
soluble fraction (log2): -0.0125

HMRSIMAVSNYRHKKILEMVYQRKSVSADELAAEFGVSKITIRRDLDTLAMDKLLERTRGGAISISD
soluble fraction (log2): -2.67

HMKFDVNAAIRAVLNVTVDKGATLERIMKETNLTSDQLVLPIALLMKTERLHFKRSGTHEVYVSVGKAPDK
soluble fraction (log2): -3.02

HMANLLNLREIPVANIRPELTMFLIPGENITQAFQTIRDQVVFTNKRLIVANVQGLTGKKVSYTSYPY
soluble fraction (log2): -0.374

HMPMDDETWDALSLFAYKRYARENGWPLMIGAEALRDTFASYFPLDSSTWQDRSSHYLTYQDGIYTRT
soluble fraction (log2): -0.53

HMADLPQATALADVKGDVQMQGIQFGYDPEKIIIHDLNLHARPGSLVAIVGPTGAGKTTIINLLMRFYD
soluble fraction (log2): -0.313

HMPVPSPAEQTATQLANIERHTGITVDGWTRAIAEAGAAKHGEIVAWLKQQGLTHGNANALAHAVRARQSG
soluble fraction (log2): 0.27

HMKSIPKIKWNSTLENIKNFEYQDNFFESKEMYDLLVSFYKYGFVIIKNIPTNNNFIVKFANSIGS
soluble fraction (log2): -0.021

HMVREVGYNAFLAMLDSGAVKEVARDESEGQITFLATDEKGKERVYKTGIWPDDTLTERLNTAGVEFA
soluble fraction (log2): 0.178

HMTVIARQIPPLVPRMLDGLEAFIKLDVPFEEKERLARVQMLRSSLDRDNLDTAEIFRAVLEAYNIELQY
soluble fraction (log2): 0.0196

HMQRIFIDNHDRILYYSNPAGYIAGKEAVVDTMFQTQELERFLQKQSLSIRWEDGVYDRLLLGQ
soluble fraction (log2): 0.016

HMSVIETLLSDREREVLTHLVNGYDAKRIAEITGISTLTVRKHIANIYTKLHVNSKAQVISMAHKNKWF
soluble fraction (log2): -0.657

HMSMLSQERQSLILDIIKEQGSVTVTRLTEILQSSESTVRRDLSYLASKGKINKVHGGATALG
soluble fraction (log2): -0.206

HMFLPETEVKSFFHRGITKISPSLAMDIADFFRMPFAVILKRALALEVISDEQYRSFMTVKPEHV
soluble fraction (log2): -0.014

HMGQVSEAGELEVAADRVIAANPEAVTKYKSGNENILQFLVGQMMKETKGAANPQVAAEILRKKIV
soluble fraction (log2): 0.254

HMGAVQFAEQKIHIGSRWIGKKISEFSAESDAFVILIKRGSEVVIPRGPTDIVENDVLVIHVPD
soluble fraction (log2): -2.56

HMNQASLTYSEFIANVESKAITRVTISGDTISGILADGKPFQTIYPMADLELLPILRRSGVDINVKEVQ
soluble fraction (log2): -0.117

HMSQQVVTDGVNLRLRYAPSPDAETYKWADGTNRHPEKGERFPYLGDIGDFYRIDYKGLVLYVSKQHTHL
soluble fraction (log2): -1.85

HMGSLNDQVMKYIDALPSAFNKRELDFLIERGVKEFALNGEYLEKAIINEYKLTADTYHRER
soluble fraction (log2): 0.0641

HMQELVPGKVFEGTVTEMKNGQVTLGLSDGKTISARMEQGVSLAKGQPMLFEVKSNTGEQIAIRPVVL
soluble fraction (log2): 0.169

HMVSSVAAISQMIDEKDRYTSEHSHRVAEYARLIGAHMGFAGEELDSLYRSALLHDIGKIAVPDAILNK
soluble fraction (log2): -0.338

HMSENDTILAKFVSVMGNKNLELVIFPDIAYLKGQVSNPEDKTKAETVAQSLLGGKPLVSLIEFE
soluble fraction (log2): 0.218

HMKDHKSKWMAKTELDSIAKNLSKKHAISLDYEEDGTRFYAGGQSPLGIGRLFTVFVAPRNGHWSDQLR
soluble fraction (log2): 0.189

HMPESETIMVDVKGAVQSEGVYELPSTARVNDAIEAAGGFSDQADKKSVNLAQKLSDEAVVYVASQGENV
soluble fraction (log2): 0.207

HMVTEKNALTIEIEDLTKRFGNQRESLLPILQEVQLKHGHISDFAQQEIARLLDIHPVEVYGVVTFFSFLS
soluble fraction (log2): -2.21

HMAPRLTERERQVLQLIAEGLTSMQIGDRLHIAASTVDVHRRNLMRKLDLHNVADLTRYAITQGISP
soluble fraction (log2): -0.0624

HMDFDPDVPSREDILQAFRDSKPPLTVNALISEFGLSRDASIVGLERRMGAMQRDGQLEQTPSGWQLSV
soluble fraction (log2): -0.158

HMDNPLSQQEKRILQLISLGKTNQEIADILYLSNGTVRNYISSILNKLSANNRVEAARIAEEHGW
soluble fraction (log2): -0.73

HMIEINNLEDLKLMKEFILKNGKYGFGVFVGGKYIGLSDIGSVNSFKDTLGLPVVSLGNDDFKRFTEAH
soluble fraction (log2): -0.658

HMERPEVVAYRLAYASAESLRPALGLVASPSDLEIDERTNTLIVRAVPSVQERVAELVASLDI
soluble fraction (log2): -0.237

HMVKGIVPNLIGKTQDEAKQMAEEYGFSIGTVSEKASDKPKGTVIEQSPKAGAKASGVTSINIVVSDGS
soluble fraction (log2): -0.0342

HMVTNELFGTRLRAFRKEKGLTIEQLAERVGLSPNYLGDIERGKKLPSMATFIRLVNELDISADEL
soluble fraction (log2): -0.293

HMSVERIEPPLPLIDTLLALRDALERPLSREENAFLSRRFAGGATRAQIDALAAQFRGAAAAESKV
soluble fraction (log2): 0.104

HMDLIEVLAQDTIKKIYNTYVAYKNKVDVFYVAFSGGKDSIVTLDLVQRTLPHNEFKVLFGDTGM
soluble fraction (log2): 0.133

HMEGIAEILPASVRQKYGLIGLYDALRGLHFPGNMEEIKAARQRLAFEDTLMFSLTLSMMQYS
soluble fraction (log2): -0.0198

HMEPGEVQVDGLRFIAQPQERNDFEVALEQFRAGNFAAARKSFAAFINTYKQSGYLPSARFW
soluble fraction (log2): -0.0516

HMPRVSIEKIKKVVELLKHNPDYTYSKIGNIVGIGRKTVSGINNGKLYTDLVEELGINEFPI
soluble fraction (log2): -0.292

HMENIIFDIGFHKGEDTLFYLLKGYRVIAVDADPDLINEWQNIFKKYIENGKLLLLNYVISDT
soluble fraction (log2): -1.33

HMGSFTDKQIKQAFGVLNDPRFKQGNYDGAVAVINKIAPGLADHPSVANALKRANEATQDIAQQTQA
soluble fraction (log2): 0.161

HMSRWHEFLNKSEDGMKELDEQNQKVLTLLILQRFYQTPFQAKEDEEFYREFFERLSSVNEILG
soluble fraction (log2): 0.0126

HMAVDVNKATAAELDSIKGIGPAISAKILEEKKKGGNFKDWNDLVTRVSGVGEANAAKFSSEGLTVGGAS
soluble fraction (log2): 0.0629

HMGTISKRINPSGTTVYRAVIRIRKNGYPNFTESRTFSKKSMAAEWVKRREAEIELNPDILFG
soluble fraction (log2): -2.13

HMTGKLGKIILQPKQTVYGITKKYQISESELRRLNPQLDSHLKIGDEVILPAENIKKFGGNQPVAVS
soluble fraction (log2): 0.311

HMLAGVDTLADRELEVFQMLGRGKSTKEIAQVLNLGESTVETYRARIKEKLQLRSAAELYLRAGQWVRDHG
soluble fraction (log2): -0.184

HMTPEPVREALTFQEGRVFALAAKNMTNAEIAQSLSLKLKTVENYMSIIYQKLALKNRYELLVYARKSGV
soluble fraction (log2): -0.631

HMVNGEFIDRIKVILQENNATRKKDRLTKTRMYQLLQEEGYEGSYSAFTYQVRIIEEELGINNK
soluble fraction (log2): -1.51

HMIKSMTGYGSAKGTVEGIEVSVELKSVNNKFLDTSIRLPRSFLFAEETIKQAVSSHISRGKVDVFVSVDS
soluble fraction (log2): ≥ 0.62

HMGNVRSWKGWTSAGGTRVQMRQGDSINSMARRYGVPIQAIVAVNGIDDPAKVQPGQSVIIPTYVY
soluble fraction (log2): 0.0448

HMGSQELIQLGERIRQKRKDSHLTQETFAEKAGISVNTVSRIEGGQAAMSIEIFAKLVEILDADANELLG
soluble fraction (log2): -1.14

HMKRFSPPSIEEVDSYIREKGYTVDAERFVNFYESKGWYVGKNKMKNWRAAVATWQKEDNKRN
soluble fraction (log2): 0.199

HMLEEIIDVKRFLVENVRGVSEKTALAILSEFGDKTMDVLRNSPNELYRIKGMSGKRIEVIKDAIANATAS
soluble fraction (log2): -0.275

HMPGTEAQDGEVLLDALRRIHPDSSTGTLRRMLTQGRVQVDGTTVHAAKAELTSGQHVEVVAR
soluble fraction (log2): 0.0101

HMDGIGLRVRMIREGVGLTQKQLAEHLGMQRTALVQVEAGSRKLSASELIGVARFFNITVEQFLDPEK
soluble fraction (log2): -3.37

HMITALLPGTVLIREFDGRDYHVTVATDGRFEMDGHKYPSLSAVAKHITGTQWSGPAFFGLN
soluble fraction (log2): -1.75

HMKISDMIETNLKFLRGKHSISQAELAESLGIPRTTLSAYERGFVEPNIELMLKMAKYFNVSLDDLIAYN
soluble fraction (log2): -1.88

HMIEQIELEARVPDELGGQRLDQVAAQMFDDFSRSRLTGWIRDGSLTADGQQLRPRDIVYGGTLLQLKAEQ
soluble fraction (log2): 0.00374

HMATIADILAEHKDKEGPLLPVLHDVQKMFGHVSEEAMREIAQALNLTRAEVYGVVSFYHDFRKEVE
soluble fraction (log2): -0.975

HMQKEMDIVLQINGKMRSNLKVSSTANDDEIIKTAIESDAYKKFSLGLRIQKTIIVPNRLINIVLEK
soluble fraction (log2): -0.985

HMKDYQGNILIQSEGDRIDKFLFKYFNSFSRTKIKNHIINGNILVNDKNTIPAYVLKINDKISYDLSTSVK
soluble fraction (log2): -1.04

HMRAVFEQLRIGQTLAGVVKAQEKGFSLVEIDGQTVAMRLPHPAAVGDTLRLRFAGHMPQAVFLLES
soluble fraction (log2): -0.561

HMRTIPDALIGRPYESVETAIVLEGLQAKRTEVFHPTIRPGTVIRLEPTSGSELLRDGVVEIFVSQGPETT
soluble fraction (log2): -0.159

HMQQLDDDTVAYVADNGIAVKSKNGKELSVDTSGLSYDIIMDMFRNLPRNGDFFSSKYWSDNIQKAQAR
soluble fraction (log2): 0.41

HMRAEELEQFVERLKNEVMNNFPLKELSDNELREKIENLVEIRLANVYVSIEQRVAIAEQIYSSIR
soluble fraction (log2): -0.0429

HMKLSIGGTIEKLRRNKGLSHQQLANALGVTPDTVEKWEINAAYPDITLLSPIARLLGTTLDALLMF
soluble fraction (log2): -0.649

HMQDLVAVPALTGLTENDAINKAKANNLIAVVSEYKTENSVEPGKVLEQDPESSTEVKKGTIIKLVVS
soluble fraction (log2): ≥ 0.62

HMTEKEEERTEDLNYYRLNLISMLKSSYPEYLDDEEFISNRSQEAAEAFEDAVRSGSNYLDASAESNRTLY
soluble fraction (log2): -0.362

HMTASSYMGMQLGRLEELLKKEVLSLSEKTELKDLISDFDKIPEVVSPKIIGRYLQLKNQHFAKINA
soluble fraction (log2): -0.0763

HMSVPRVWTDIQGRRVKGDFEGLRGDLVVLRVGGKSYAFPLVRLIASDQAYARSLVAGNPSK
soluble fraction (log2): -0.499

HMDEEGDALDREYEDQIRLGDEAFDAEDWTSAQRAYTAALELRPDERYPKNRLRRLASLQEDV
soluble fraction (log2): 0.0779

HMVVYDAELLLNINPGMSYEEVKEMLGDPGMIIAGNDAENSVYRWSTGGISFMGRFENGALIRKSIISP
soluble fraction (log2): -0.621

HMAVPLVRGTVTSSVGTVLLLSVGERDFFLSEGEEKDGVLLQSLSEKSAVVVVSGRAYTLSL
soluble fraction (log2): -0.408

HMENNIILNYVKDNLNITEKDAKDLIELLGSDYYHIKNETNKIAAFLDGQPYSFEKIKNLISIDKEY
soluble fraction (log2): 0.0808
